Our source for the stoichiometry N values is paper PMC8402785.

The stoichiometry N is the number of molecules, sites or subunits per partner or assembly.

In assay [1] the target is recombinant HAdV-C5 fibre knob protein (human adenovirus type 5 (HAdV-C5)).
The target of assay [2] is recombinant HAdV-D49 fibre knob protein (human adenovirus type 49 (HAdV-D49)). Briefly: gel electrophoresis with Coomassie staining, with or without denaturing agent; 5 µg and 10 µg of recombinant knob, with or without treatment with a denaturing agent, stained with Coomassie; validation of knob trimerisation.

Turning to “recombinant HAdV-C5 fibre knob protein (domain or fragment)”, in assay [1], the stoichiometry N stood at 3. With “recombinant HAdV-D49 fibre knob protein (domain or fragment)”, the stoichiometry N in assay [2] is 3.
